In assay [1] the target is extracellular domain of human LEPR, GPI-anchored on HEK293/hLEPR-GPI cells (human) (UniProt P48357). As to the kind of experiment: FACS, 200 nM antibody, HEK293/hLEPR-GPI cells, 1 µM Leptin present.
The target is the same in assay [2]. As to the kind of experiment: FACS, 200 nM antibody, HEK293/hLEPR-GPI cells, No Leptin. (In flow cytometry, cells or beads pass a laser one at a time.)
The target in assay [3] is full length human GP130 (leucine at position 2 changed to valine) on HEK293/Stat3-luc/gp130-2X Sort cells (human) (UniProt P40189). As to the kind of experiment: FACS, 200 nM antibody, HEK293/gp130 2X Sort cells.
In assay [4] the target is extracellular domain of human LEPR, GPI-anchored on HEK293/hLEPR-GPI cells (human) (UniProt P48357). Kind of assay: FACS, secondary antibody only, HEK293/hLEPR-GPI cells, No Leptin.
The target is the same in assay [5]. Kind of assay: FACS, secondary antibody only, HEK293/hLEPR-GPI cells, 1 µM Leptin present.
Assay [6] deals with full length human GP130 (leucine at position 2 changed to valine) on HEK293/Stat3-luc/gp130-2X Sort cells (human) (UniProt P40189). As to the kind of experiment: FACS, secondary antibody only, HEK293/gp130 2X Sort cells.
In assay [7] the target is gp130 expressed endogenously on IMR-32/STAT3-Luc cells (human) (UniProt P40189). Kind of assay: FACS, secondary antibody alone, IMR-32/Stat3-luc cells, no hGP130.mmh.
Assay [8] deals with full length (FL) human gp130 over-expressed on HEK293/Stat3-luc/gp130-2X Sort cells (human) (UniProt P40189). As to the kind of experiment: FACS, secondary antibody alone, 293/Stat3-luc/GP130 2X sort cells.
Assay [9] deals with gp130 expressed endogenously on IMR-32/STAT3-Luc cells (human) (UniProt P40189). Kind of assay: FACS, secondary antibody alone, IMR-32/Stat3-luc cells, 1 uM hGP130.mmh present.
For assay [10] the target is unchanged. As to the kind of experiment: cell-based or functional assay.

Chain of extracellular domain of human LEPR, GPI-anchored on HEK293/hLEPR-GPI cells (human) (P48357 22-839 limits assumed): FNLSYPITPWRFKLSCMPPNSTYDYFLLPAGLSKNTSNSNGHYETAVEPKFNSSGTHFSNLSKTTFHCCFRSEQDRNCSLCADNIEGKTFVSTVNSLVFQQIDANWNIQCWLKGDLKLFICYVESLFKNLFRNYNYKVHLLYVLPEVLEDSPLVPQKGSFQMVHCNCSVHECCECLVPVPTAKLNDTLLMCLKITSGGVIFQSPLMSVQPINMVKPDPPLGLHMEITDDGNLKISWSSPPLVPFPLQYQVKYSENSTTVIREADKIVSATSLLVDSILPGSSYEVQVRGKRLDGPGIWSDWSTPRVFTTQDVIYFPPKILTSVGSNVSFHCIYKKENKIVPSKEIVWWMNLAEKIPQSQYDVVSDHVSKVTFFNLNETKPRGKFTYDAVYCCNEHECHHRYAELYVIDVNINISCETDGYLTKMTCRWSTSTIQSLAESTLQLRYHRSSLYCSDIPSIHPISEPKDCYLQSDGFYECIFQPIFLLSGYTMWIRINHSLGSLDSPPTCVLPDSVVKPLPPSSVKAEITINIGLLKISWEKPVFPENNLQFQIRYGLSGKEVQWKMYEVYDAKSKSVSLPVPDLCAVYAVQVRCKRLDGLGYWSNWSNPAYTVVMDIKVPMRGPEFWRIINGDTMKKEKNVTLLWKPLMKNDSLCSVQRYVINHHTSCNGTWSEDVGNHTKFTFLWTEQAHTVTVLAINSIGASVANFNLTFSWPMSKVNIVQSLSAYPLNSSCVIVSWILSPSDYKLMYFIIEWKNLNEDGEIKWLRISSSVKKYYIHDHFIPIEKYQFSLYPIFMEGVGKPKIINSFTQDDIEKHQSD
Chain of gp130 expressed endogenously on IMR-32/STAT3-Luc cells (human) (P40189 23-918): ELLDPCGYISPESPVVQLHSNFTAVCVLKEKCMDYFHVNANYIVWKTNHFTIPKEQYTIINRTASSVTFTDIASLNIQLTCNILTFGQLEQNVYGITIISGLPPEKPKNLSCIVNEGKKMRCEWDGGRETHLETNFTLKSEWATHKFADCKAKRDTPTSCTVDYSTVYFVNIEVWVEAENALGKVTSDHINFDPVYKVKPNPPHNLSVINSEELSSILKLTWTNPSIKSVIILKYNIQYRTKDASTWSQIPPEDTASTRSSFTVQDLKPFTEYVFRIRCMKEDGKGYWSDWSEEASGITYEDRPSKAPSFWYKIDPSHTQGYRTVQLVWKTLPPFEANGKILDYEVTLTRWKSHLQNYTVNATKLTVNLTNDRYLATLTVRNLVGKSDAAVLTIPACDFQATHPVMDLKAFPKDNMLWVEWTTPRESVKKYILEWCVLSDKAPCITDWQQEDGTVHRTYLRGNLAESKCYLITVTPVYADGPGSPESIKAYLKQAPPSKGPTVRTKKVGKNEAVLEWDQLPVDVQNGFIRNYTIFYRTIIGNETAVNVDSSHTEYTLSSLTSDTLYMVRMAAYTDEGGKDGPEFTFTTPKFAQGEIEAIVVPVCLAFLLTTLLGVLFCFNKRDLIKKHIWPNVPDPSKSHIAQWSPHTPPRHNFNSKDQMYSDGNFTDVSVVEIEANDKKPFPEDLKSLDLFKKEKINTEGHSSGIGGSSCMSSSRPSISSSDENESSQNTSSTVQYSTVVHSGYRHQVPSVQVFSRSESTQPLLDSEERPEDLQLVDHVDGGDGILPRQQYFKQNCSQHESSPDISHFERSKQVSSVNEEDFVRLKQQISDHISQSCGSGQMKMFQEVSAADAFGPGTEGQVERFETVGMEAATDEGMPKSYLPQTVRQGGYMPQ
Chain of full length human GP130 (leucine at position 2 changed to valine) on HEK293/Stat3-luc/gp130-2X Sort cells (human) (P40189 23-918): as above
Chain of full length (FL) human gp130 over-expressed on HEK293/Stat3-luc/gp130-2X Sort cells (human) (P40189 23-918): as above

Turning to Isotype Control (antibody), the values for the Binding Ratio: Normalized to Unstained Sample of Each Cell Line (FL4-A) in assay [1], in assay [2] and in assay [3] were 3, 3 and 2, respectively.

Turning to Secondary antibody alone, the Binding Ratio: Normalized to Unstained Sample of Each Cell Line (FL4-A) in [4] is 3; in [5] it was 2; in assay [6], 1.

For the substance a-h 2″ alone (antibody), the MFI - Normalized to Unstained Control in [7] was 4; in [8], 2; in assay [9] it was 8.

Take “human Leukemia Inhibitory Factor (from UniProt P15018 23-202) (ligand)”: in assay [10], the EC50 of activation of IMR-32/STAT3-luc cells (STAT3-luciferase) came to 23 pM.

(Values after patent publication US20190185562A1.)
